These are literature values, as cited in publication PMC11932923.

In this data set the target is IL-36R (Homo sapiens) (UniProt Q9HB29). The data set can be described thus: Biacore SPR. In general terms: SPR reads the build-up and loss of mass on a sensor chip optically.
UniProt Q9HB29, sequence (Q9HB29 20-575): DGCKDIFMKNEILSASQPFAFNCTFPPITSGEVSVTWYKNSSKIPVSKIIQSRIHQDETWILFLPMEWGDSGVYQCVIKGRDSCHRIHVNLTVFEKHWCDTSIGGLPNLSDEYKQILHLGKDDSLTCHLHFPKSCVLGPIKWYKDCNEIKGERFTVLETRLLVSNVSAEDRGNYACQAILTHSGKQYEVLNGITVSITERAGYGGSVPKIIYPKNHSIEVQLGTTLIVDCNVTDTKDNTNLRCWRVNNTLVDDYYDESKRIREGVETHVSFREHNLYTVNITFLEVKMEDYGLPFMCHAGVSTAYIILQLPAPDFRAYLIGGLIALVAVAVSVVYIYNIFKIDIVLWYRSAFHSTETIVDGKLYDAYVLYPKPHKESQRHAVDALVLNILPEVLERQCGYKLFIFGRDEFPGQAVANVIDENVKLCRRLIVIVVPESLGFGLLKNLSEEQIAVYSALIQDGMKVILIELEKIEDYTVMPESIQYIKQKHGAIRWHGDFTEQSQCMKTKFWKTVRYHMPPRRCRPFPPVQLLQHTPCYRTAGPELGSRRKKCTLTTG

As for “IL-36β (N-terminally truncated) (from UniProt Q9NZH7)”, the Kd – broadly, the constant that tells how readily two partners part at equilibrium – was 7 pM.
